Measurements taken from US20220195015A1 (published 2022).

Molecular target: SARS-CoV-2 spike protein receptor binding domain (RBD) (SARS-CoV-2, UniProt P0DTC2 319-539)
Test: ELISA, RBD coated on plate, mAb titrated

Binder | EC50 [ng/mL]
C546 (antibody, V domains shown) VH: EVQLLESGGGLVHPGGSLRLSCAASGFTFSTYAMHWVRQAPGKGLEWVSAISGSGTGTFYADSVKGRFSISRDNSKNTLYLQMNSLRAEDTAVYYCATERIAVSDTRMYNWFDPWGQGTLVTVSS VL: DIQMTQSPSSLSASVGDRVTLTCRASQGISTYLNWYQQKPGKAPNLLIYAASSLQSGVPSRFSGSGSGTDFTLTISSLQPEDFATYYCQQSYSAPPWTFGQGTKVEIK | 3.57
C545 (antibody, V domains shown) VH: EVQLLESGGGLVKPGGSLRLSCAASGFTFSDYSMTWVRQAPGKGLEWVSFISSSSTYIYYADSVKGRFTISRDNAKSSLYLQMNRLRAEDTAVYYCTRVQVGARGWADYWGQGTLVTVSS VL: NFMLTQPLSVSESPGKTVTISCTRSSGSIASNYVQWYQQRPGGAPTTVIYEDTQRPSGVPDRFSGSIDSSSNSASLTISGLKTEDEADYYCQSCDTINWVFGGGTKLTVV | 3.68
C549 (antibody, V domains shown) VH: QVQLVQSGAEVKKPGSSVKVSCKASGGTFSTSAISWVRQAPGQGLEWMGGIIPFFGTPNYAQKFQGRVTIIADESTTTAYMELSGLRFEDSAVYYCARREPYGPRDYYYFFGMDVWGPGTTVTVSS VL: QSALTQPPFASASLGASVTLTCTLSSDYSYYKVDWYQQRPGKGPRFVIRVGPGGIVGSKGDGFPDRFSVLGSGLNRSLTINNIQEEDEGDYHCGADEGSGGTFVGVFGGGTKLTV | 1.76
C542 (antibody, V domains shown) VH: EVQLVESGGGLVQPGGSLRLSCAASGLTVTSNYMSWVRQAPGRGLEWVSLIYPGGTTYYADSVKGRFTVSRDNSKNTLYLQMDSLRAEDTGVYYCARETLGRGGDCWGQGTLVTVSS VL: DIQMTQSPSSLSASVGDRVTITCQASQDISNFLNWYQQKPGKAPKLLIYDASNLETGVPSRFSGSRSGTDFTFTISSLQPDDIATYYCQQYDNLPRSFGQGTKLEIK | 1.07
C548 (antibody, V domains shown) VH: QVQLVQSGAEVKKPGSSVKVSCKASGGTFSSYAISWVRQAPGQGLEWMGGIIPIFGTANYAQKFQGRVTITADESTSTAYMELSSLRSEDTAVYYCARREAYGPRDYYYYYGMDVWGQGTTVTVSS VL: QSALTQPPSASASLGASVTLTCTLSSGYSNYKVDWYQQRPGKGPRFVMRVGTGGIVGSKGDGIPDRFSVLGSGLNRYLTIKNIQEEDESDYHCGADQGSGSNFVGVFGGGTKLTVL | 1.72
C534 (antibody, V domains shown) VH: QVQLVQSGAEVKKPGSSVRVSCKASGGTFSRNVISWVRQAPGQGLEWMGGIIPMFATANYAQKFQGRVTITADESSSTAYMELSSLRSEDTAVYYCAREDFILVSAPIRENSYYYYGMDVWGQGTTVTVSS VL: EIVLTQSPGTLSLSPGERATLSCRASQSVSSNYLAWYQQKPGQAPRLLIYDASSRATGIPDRFSGSGSGTDFTLTISRLEPEDFAVYYCQQYGGSPRTFGQGTKVEIK | 4.85
C536 (antibody, V domains shown) VH: QVQLVESGGGLVKPGRSLRLSCTVSGFTFGAYAMSWFRQAPGKGLEWVGFIRSKTYGGTTEYAASLKGRFTISRDDSKSIAFLQMNSLKTEDTAVYFCSRGGYYDGSPYYWNRPDAFDIWGLGTMVTVS VL: not shown | 1.88
C540 (antibody, V domains shown) VH: EVQLVESGGGLVQPGGSLRLSCAASGFTFRNYDMHWVRQVAGKGLEWVSAIGTSGDTYYPDSVKGRFTISRENAKNSVYLQMNNLRAGDTAVYFCVRDREISGWTGWYFDLWGRGTLVTVSS VL: DIQMTQSPSSLSASVGDRVTITCRASQTIHNYLNWYQQIPGKAPRLLIYATNTLQSGVPSRFSGSGSGTDFTLTITGLQPEDFATYYCQQSYSTPPITFGQGTRLEIK | 2.9
C539 (antibody, V domains shown) VH: EVQLVESGGGLVQPGRSLRLSCAASGFTFDDYALHWVRQAPGKGLEWVSGISWNGDSIGYADSVKGRFTISRDNAKNSLSLQMNSLTAEDTALYYCAKGVEYSSSSNCDYWGQGTLVTVSS VL: DIQMTQSPSSVSASVGDRVTITCRASQDISSWLAWYQQKPGKAPKLLISLASGLQSGVPSRFSGSGSETDFTLTISSLQPEDFATYYCQQTNSFPLTFGGGTKVEI | 1.3
C561 (antibody, V domains shown) VH: EVQLVESGGGLVQPGRSLRLSCAASGFTFDDYAIHWVRQAPGKGLEWVSGVSWNSGTIGYADSVKGRFFISRDNAKNSLYLQMNSLRAEDTAWYYCAKIADLVGAYDFRSGQHFAAFDVWGQGTMVTVSS VL: not shown | 1.53
C535 (antibody, V domains shown) VH: EVQLVESGGALVQPGRSLRLSCAASGFTFDDYAMHWVRQAPGKGLEWVSSISWNGVSIGYADSVRGRFTISRDNAKNSLYLQMNSLKIGDTAFYYCARGLDGSSSASPDSWGQGTLVTVSS VL: DIQMTQSPSSVSASVGDRVTITCRASQGIGSWLAWYQQKPGKAPKLLIYLASSLQSGVPSRFSGSGSGTYFTLTISGLQPEDFATYYCQQGNSFPLTFGGGTKVEIK | 2.46
C538 (antibody, V domains shown) VH: QLQLQESGPGLVKPSETLSLTCTVSGGSISSSSYYWAWIRQPPGKGLEWIGNIYYSGITYYSPSLKSRVTISVDTSKNQFSLKLRSVTAADTAVYYCARQHRYGSGSSELLWGQGTLVTVSS VL: QSALTQPPSASGSPGQSVTISCTGTSSDVGSYNYVSWYQQHPGKAPKLMIYEVTKRPSGVPDRFSGSKSGNTASLTVSGLQADDEADYYCSSYAGSSNLIFGGGTKLTVL | 3.95
C537 (antibody, V domains shown) VH: QLQLQESGPGLVKPSETLSLTCTVSGGAISSRNYHWGWIRQPPGKGLEWIGSIYYSGSTYYSPSLKSRVTISVDTSKNQFSLRLSSVTAADTAVYYCARLETSGWYTEDVFDIWGQGTMVTVSS VL: DIQMTQSPSSLSASVGDRVTITCRASQSISSYLNWYQQKPGKAPKLLIYAASSLQSGVPSRFSGSGSGTDFTLTISSLLPEDFATYYCQRSYSAMYTFGQGTKLEIK | 41.9
C543 (antibody, V domains shown) VH: QVQLVESGGGVVQPGRSLRLSCTASGFTFSTAGMHWVRQAPGKGLEWVAVISYDGSNKDYADSVKGRFTISRDNSKSTLYLQMNSLRPEDTAVYYCAKDTPGGDDIMTGWGLYGMDVWGQGTTVTVSS VL: DIQMTQSPSSLSASVGDRVTITCRASQSISSYLNWYHQKPGKAPKLLIYAAISLQSGVPSRFSGSGFGTDFTLTISSLQPEDFAIYYCQQSYSTPWTFGQGTKVEIK | 1.28
C547 (antibody, V domains shown) VH: QVQLVESGGGVVQPGRSLRLSCAASGFTFSSYGMHWVRQAPGKGLEWVAVISYDGSNKYYADSVKGRFTISRDNSKNTLYLQMNSLRAEDTAVYYCAKDTPGGDDILTGWGLYGMDVWGQGTTVTVSS VL: not shown | 1.78
C544 (antibody, V domains shown) VH: QVQLVQSGAEVKKPGASVKVSCKASGYTFSSHDINWVRQATGQGLEWVGWMNPNSGNTGSAQSFQGRVTLTRNASISTAYLELSSLRSEDTAVYFCARGFSLTWYFDLWGRGTLVTVSS VL: SYELTQPPSVSAAPGKTARITCGGNNIGGKNVHWYQQKPGQAPVLVVFDDSDRPSGIPERFSGSNSGNTATLTISRVEAGDEADYYCQLWDSTSDHPDVVFGGGTQLTVL | 2.34
C533 (antibody, V domains shown) VH: EVQLVESGGSLVKPGGSLRLSCVASGLTFNHAWMSWVRQAPGKGLEWVGRIKSKIDGGTTDYAAPVKGRFTISRDDSKSTQYLQMNSLKTEDTAVYYCTTDCFWRLGGTTCYEHDAFDVWGQGTMVTVSS VL: DIQMTQSPSSLSASVGDRVTITCRASQAIATFLNWYQQKPGKAPKLLIYAASSLQSGVPSRFSGSGSGTDFTLTISNLQPEDFATYYCQQSYNSLHFGGGTKVEIK | 1.61
